The Human Domainome abundance scans (Beltran et al. 2025)
± gives the uncertainty stated by the source.

B1: Peripheral plasma membrane protein CASK, residues 488 to 569; numbered along this chain, O14936 (parent)
chain: VRLVQFQKNTDEPMGITLKMNELNHCIVARIMHGGMIHRQGTLHVGDEIREINGISVANQTVEQLQKMLREMRGSITFKIVP

Variants of: B1
Experiment: abundance fitness (aPCA) (normalised: wild type 0, dead -1); higher = more abundant; growth selection in yeast, the domain comes from the species named
Details: Homo sapiens
Work on VRLVQFQKNTDEPMGITLKMNELNHCIVARIMHGGMIHRQGTLHVGDEIREINGISVANQTVEQLQKMLREMRGSITPKIVP [F78P] yielded an abundance fitness of -0.998 ± 0.12.
VRLVQFQKNTDEPMGITLKMNELNHCIVARIMHGGMIHRQGTLHVGDEIREINGISVANQTVEQLQKMLREMRGSITQKIVP [F78Q] showed an abundance fitness of -1.22 ± 0.42.
Variant VRLVQFQKNTDEPMGITLKMNELNHCIVARIMHGGMIHRQGTLHVGDEIREINGISVANQTVEQLQKMLREMRGSITRKIVP [F78R] has an abundance fitness of -0.812 ± 0.071.
VRLVQFQKNTDEPMGITLKMNELNHCIVARIMHGGMIHRQGTLHVGDEIREINGISVANQTVEQLQKMLREMRGSITSKIVP [F78S] showed an abundance fitness of -0.839 ± 0.065.
Variant VRLVQFQKNTDEPMGITLKMNELNHCIVARIMHGGMIHRQGTLHVGDEIREINGISVANQTVEQLQKMLREMRGSITTKIVP [F78T] has an abundance fitness of -0.677 ± 0.066.
Work on VRLVQFQKNTDEPMGITLKMNELNHCIVARIMHGGMIHRQGTLHVGDEIREINGISVANQTVEQLQKMLREMRGSITVKIVP [F78V] yielded an abundance fitness of -0.198 ± 0.035.
With VRLVQFQKNTDEPMGITLKMNELNHCIVARIMHGGMIHRQGTLHVGDEIREINGISVANQTVEQLQKMLREMRGSITWKIVP [F78W] the abundance fitness was -0.484 ± 0.074.
In the case of VRLVQFQKNTDEPMGITLKMNELNHCIVARIMHGGMIHRQGTLHVGDEIREINGISVANQTVEQLQKMLREMRGSITYKIVP [F78Y], the abundance fitness is reported as -0.524 ± 0.064.
With VRLVQFQKNTDEPMGITLKMNELNHCIVARIMHGGMIHRQGTLHVGDEIREINGISVANQTVEQLQKMLREMRGSITFAIVP [K79A] the abundance fitness was 0.071 ± 0.044.
VRLVQFQKNTDEPMGITLKMNELNHCIVARIMHGGMIHRQGTLHVGDEIREINGISVANQTVEQLQKMLREMRGSITFCIVP [K79C] gave an abundance fitness of -0.053 ± 0.054.
VRLVQFQKNTDEPMGITLKMNELNHCIVARIMHGGMIHRQGTLHVGDEIREINGISVANQTVEQLQKMLREMRGSITFDIVP [K79D] gave an abundance fitness of -0.27 ± 0.071.
Variant VRLVQFQKNTDEPMGITLKMNELNHCIVARIMHGGMIHRQGTLHVGDEIREINGISVANQTVEQLQKMLREMRGSITFEIVP [K79E] has an abundance fitness of -0.113 ± 0.066.
For VRLVQFQKNTDEPMGITLKMNELNHCIVARIMHGGMIHRQGTLHVGDEIREINGISVANQTVEQLQKMLREMRGSITFFIVP [K79F], the abundance fitness was -0.457 ± 0.056.
Work on VRLVQFQKNTDEPMGITLKMNELNHCIVARIMHGGMIHRQGTLHVGDEIREINGISVANQTVEQLQKMLREMRGSITFGIVP [K79G] yielded an abundance fitness of -0.044 ± 0.045.
VRLVQFQKNTDEPMGITLKMNELNHCIVARIMHGGMIHRQGTLHVGDEIREINGISVANQTVEQLQKMLREMRGSITFHIVP [K79H] showed an abundance fitness of -0.006 ± 0.039.
Work on VRLVQFQKNTDEPMGITLKMNELNHCIVARIMHGGMIHRQGTLHVGDEIREINGISVANQTVEQLQKMLREMRGSITFIIVP [K79I] yielded an abundance fitness of -0.406 ± 0.055.
Variant VRLVQFQKNTDEPMGITLKMNELNHCIVARIMHGGMIHRQGTLHVGDEIREINGISVANQTVEQLQKMLREMRGSITFLIVP [K79L] has an abundance fitness of -0.09 ± 0.029.
For VRLVQFQKNTDEPMGITLKMNELNHCIVARIMHGGMIHRQGTLHVGDEIREINGISVANQTVEQLQKMLREMRGSITFMIVP [K79M], the abundance fitness was -0.133 ± 0.044.
VRLVQFQKNTDEPMGITLKMNELNHCIVARIMHGGMIHRQGTLHVGDEIREINGISVANQTVEQLQKMLREMRGSITFNIVP [K79N] showed an abundance fitness of -0.091 ± 0.05.
Variant VRLVQFQKNTDEPMGITLKMNELNHCIVARIMHGGMIHRQGTLHVGDEIREINGISVANQTVEQLQKMLREMRGSITFPIVP [K79P] has an abundance fitness of -1.14 ± 0.16.
VRLVQFQKNTDEPMGITLKMNELNHCIVARIMHGGMIHRQGTLHVGDEIREINGISVANQTVEQLQKMLREMRGSITFQIVP [K79Q] gave an abundance fitness of -0.016 ± 0.037.
VRLVQFQKNTDEPMGITLKMNELNHCIVARIMHGGMIHRQGTLHVGDEIREINGISVANQTVEQLQKMLREMRGSITFRIVP [K79R] showed an abundance fitness of -0.061 ± 0.032.
With VRLVQFQKNTDEPMGITLKMNELNHCIVARIMHGGMIHRQGTLHVGDEIREINGISVANQTVEQLQKMLREMRGSITFSIVP [K79S] the abundance fitness was 0.014 ± 0.033.
Work on VRLVQFQKNTDEPMGITLKMNELNHCIVARIMHGGMIHRQGTLHVGDEIREINGISVANQTVEQLQKMLREMRGSITFTIVP [K79T] yielded an abundance fitness of -0.06 ± 0.031.
VRLVQFQKNTDEPMGITLKMNELNHCIVARIMHGGMIHRQGTLHVGDEIREINGISVANQTVEQLQKMLREMRGSITFVIVP [K79V] showed an abundance fitness of -0.213 ± 0.048.
With VRLVQFQKNTDEPMGITLKMNELNHCIVARIMHGGMIHRQGTLHVGDEIREINGISVANQTVEQLQKMLREMRGSITFWIVP [K79W] the abundance fitness was -0.572 ± 0.084.
VRLVQFQKNTDEPMGITLKMNELNHCIVARIMHGGMIHRQGTLHVGDEIREINGISVANQTVEQLQKMLREMRGSITFYIVP [K79Y] showed an abundance fitness of -0.415 ± 0.054.
In the case of VRLVQFQKNTDEPMGITLKMNELNHCIVARIMHGGMIHRQGTLHVGDEIREINGISVANQTVEQLQKMLREMRGSITFKAVP [I80A], the abundance fitness is reported as -0.468 ± 0.053.
In the case of VRLVQFQKNTDEPMGITLKMNELNHCIVARIMHGGMIHRQGTLHVGDEIREINGISVANQTVEQLQKMLREMRGSITFKCVP [I80C], the abundance fitness is reported as -0.074 ± 0.052.
For VRLVQFQKNTDEPMGITLKMNELNHCIVARIMHGGMIHRQGTLHVGDEIREINGISVANQTVEQLQKMLREMRGSITFKDVP [I80D], the abundance fitness was -1.32 ± 0.44.
VRLVQFQKNTDEPMGITLKMNELNHCIVARIMHGGMIHRQGTLHVGDEIREINGISVANQTVEQLQKMLREMRGSITFKEVP [I80E] gave an abundance fitness of -0.883 ± 0.21.
With VRLVQFQKNTDEPMGITLKMNELNHCIVARIMHGGMIHRQGTLHVGDEIREINGISVANQTVEQLQKMLREMRGSITFKFVP [I80F] the abundance fitness was -0.098 ± 0.043.
With VRLVQFQKNTDEPMGITLKMNELNHCIVARIMHGGMIHRQGTLHVGDEIREINGISVANQTVEQLQKMLREMRGSITFKGVP [I80G] the abundance fitness was -0.408 ± 0.071.
VRLVQFQKNTDEPMGITLKMNELNHCIVARIMHGGMIHRQGTLHVGDEIREINGISVANQTVEQLQKMLREMRGSITFKHVP [I80H] gave an abundance fitness of -0.623 ± 0.073.
